{"source": "paper doi:10.1101/187336", "biological_target": "fHbp^V1.1:PorA^267/P1.16 (Neisseria meningitidis (MC58 genomic DNA) | Neisseria meningitidis) (UniProt Q9JXV4)", "assay": "SPR"}
{"substance": "human complement FH domains 6 and 7 (from UniProt P08603 321-443) (domain or fragment)", "values": [{"measurement": "fold reduction of CFH binding", "value": 8, "unit": "fold"}]}
